These are literature values, as cited in publication PMC11581309.

Among the targets are CDH2 (Gallus gallus) (UniProt P10288); CDH1 (Gallus gallus) (UniProt P08641); CDH1 (Homo sapiens) (UniProt P12830); CDH2 (Mus musculus) (UniProt P15116); CDH1 (Mus musculus) (UniProt P09803); CDH2 (Homo sapiens) (UniProt P19022).

What is called Kd is a measure of binding affinity in units of concentration. CDH2 (from UniProt P10288): the Kd in the data set with CDH2 (Gallus gallus) was 20.4 µM.

For the substance CDH1 (from UniProt P08641), the Kd with CDH1 (Gallus gallus) is 110 µM.

In the case of CDH1 (from UniProt P12830), in the data set with CDH1 (Homo sapiens), the equilibrium dissociation constant (Kd) was 217 µM.

As for CDH2 (from UniProt P15116), the dissociation constant (Kd) with CDH2 (Mus musculus) is 22.6 µM.

In the case of CDH1 (from UniProt P09803), in the data set with CDH1 (Mus musculus), the dissociation constant Kd is 160 µM.

As for CDH2 (from UniProt P19022), the dissociation constant (Kd) with CDH2 (Homo sapiens) is 22.1 µM.
